Changes are numbered by the printed parent chain. Each block holds one binder with its values, some of them ahead of it.
Legend:
[1] = molecular target: T1, human ERBB3 on transiently transfected HEK-293 cells (human, UniProt P21860 20-1342); test: flow cytometry, human ERBB3-transfected HEK-293
T1 construct: also called human ERBB3+ HEK-293 cells
In short: (§1)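 Purified IgGs in IgG1null format were titrated threefold from 500 nM to 0.008 nM on HEK-293 cells transiently transfected with full-length human or rhesus ERBB3, with wild-type HEK-293 as comparison. Binding was detected with FITC anti-human IgG and read as mean fluorescence intensity of 10000 cells by flow cytometry.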

[2] = molecular target: T2, human ERBB3 human Fc tagged recombinant protein (human, UniProt P21860 20-643); test: direct binding ELISA on coated human ERBB3-Fc, IgG1null titrated
T2 construct: also called human ERBB3-Fc; huERBB3
Protocol: (§2) Binding and cross-reactivity of the lead panel to the recombinant proteins was initially assessed by binding ELISA. The human ERBB3 human Fc tagged recombinant protein and the rhesus monkey ERBB3 human Fc tagged recombinant protein were coated to the surface of MaxiSorp™ flat-bottom 96 well plate at 1 μg/ml. The purified IgG samples were titrated in two fold serial dilutions starting from 500 nM to 0.008 nM and allowed to bind to the coated antigens. The Fabs were detected using mouse anti-c-myc antibody followed by donkey anti-mouse IgG conjugated to horseradish peroxidase. The IgGs were detected using the mouse anti-human IgG conjugated to horseradish peroxidase. Binding signals were visualized with 3,3′,5,5′-Tetramethylbenzidine Substrate Solution (TMB) and the absorbance measured at 450 nm.

[3] = molecular target: T3, rhesus ERBB3 on transiently transfected HEK-293 cells (rhesus monkey (Macaca mulatta), UniProt P21860 20-1342 (human entry)); test: flow cytometry, rhesus ERBB3-transfected HEK-293
T3 construct: also called rhesus ERBB3+ HEK-293 cells
T3 chain: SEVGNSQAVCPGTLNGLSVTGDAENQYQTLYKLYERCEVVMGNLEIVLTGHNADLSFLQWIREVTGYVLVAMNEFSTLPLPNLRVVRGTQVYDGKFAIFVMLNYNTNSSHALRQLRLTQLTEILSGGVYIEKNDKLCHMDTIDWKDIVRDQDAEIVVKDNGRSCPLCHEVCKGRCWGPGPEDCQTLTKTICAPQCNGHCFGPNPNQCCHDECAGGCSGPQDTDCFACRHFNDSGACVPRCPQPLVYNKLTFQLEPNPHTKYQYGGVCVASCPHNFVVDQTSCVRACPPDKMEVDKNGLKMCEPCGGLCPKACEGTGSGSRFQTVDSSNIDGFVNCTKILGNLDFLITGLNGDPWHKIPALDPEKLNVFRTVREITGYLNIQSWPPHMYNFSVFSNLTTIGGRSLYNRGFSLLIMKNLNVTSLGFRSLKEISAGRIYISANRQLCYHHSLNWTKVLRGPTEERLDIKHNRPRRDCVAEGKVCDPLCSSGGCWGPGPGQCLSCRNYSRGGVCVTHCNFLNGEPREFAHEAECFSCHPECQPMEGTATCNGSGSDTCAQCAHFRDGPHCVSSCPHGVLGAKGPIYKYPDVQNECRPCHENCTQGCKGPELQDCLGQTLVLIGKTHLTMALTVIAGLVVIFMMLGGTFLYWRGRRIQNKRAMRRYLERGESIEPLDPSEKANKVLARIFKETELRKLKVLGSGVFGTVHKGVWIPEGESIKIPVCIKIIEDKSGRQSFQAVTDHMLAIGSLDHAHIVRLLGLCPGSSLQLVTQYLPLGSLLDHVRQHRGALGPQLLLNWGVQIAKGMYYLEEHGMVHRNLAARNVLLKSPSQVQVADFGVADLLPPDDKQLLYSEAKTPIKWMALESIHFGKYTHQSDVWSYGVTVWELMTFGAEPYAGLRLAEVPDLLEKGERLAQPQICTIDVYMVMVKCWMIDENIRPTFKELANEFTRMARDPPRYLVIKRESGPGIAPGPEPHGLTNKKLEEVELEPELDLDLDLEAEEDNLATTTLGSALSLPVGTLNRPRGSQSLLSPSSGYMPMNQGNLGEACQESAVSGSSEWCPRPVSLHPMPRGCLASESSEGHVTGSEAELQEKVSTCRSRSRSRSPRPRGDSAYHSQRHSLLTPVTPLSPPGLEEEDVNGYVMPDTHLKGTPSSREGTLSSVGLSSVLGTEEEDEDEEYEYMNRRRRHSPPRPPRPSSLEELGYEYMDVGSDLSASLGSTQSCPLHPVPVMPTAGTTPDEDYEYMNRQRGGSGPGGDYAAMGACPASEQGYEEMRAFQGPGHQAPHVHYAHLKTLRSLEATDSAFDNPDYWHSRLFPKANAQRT
In short: as §1

[4] = molecular target: T4, rhesus monkey ERBB3 human Fc tagged recombinant protein (rhesus monkey (Macaca mulatta), UniProt P21860 20-643 (human entry), limits assumed); test: direct binding ELISA on coated rhesus ERBB3-Fc, IgG1null titrated
T4 construct: also called rhesus ERBB3-Fc; rhERBB3
T4 chain: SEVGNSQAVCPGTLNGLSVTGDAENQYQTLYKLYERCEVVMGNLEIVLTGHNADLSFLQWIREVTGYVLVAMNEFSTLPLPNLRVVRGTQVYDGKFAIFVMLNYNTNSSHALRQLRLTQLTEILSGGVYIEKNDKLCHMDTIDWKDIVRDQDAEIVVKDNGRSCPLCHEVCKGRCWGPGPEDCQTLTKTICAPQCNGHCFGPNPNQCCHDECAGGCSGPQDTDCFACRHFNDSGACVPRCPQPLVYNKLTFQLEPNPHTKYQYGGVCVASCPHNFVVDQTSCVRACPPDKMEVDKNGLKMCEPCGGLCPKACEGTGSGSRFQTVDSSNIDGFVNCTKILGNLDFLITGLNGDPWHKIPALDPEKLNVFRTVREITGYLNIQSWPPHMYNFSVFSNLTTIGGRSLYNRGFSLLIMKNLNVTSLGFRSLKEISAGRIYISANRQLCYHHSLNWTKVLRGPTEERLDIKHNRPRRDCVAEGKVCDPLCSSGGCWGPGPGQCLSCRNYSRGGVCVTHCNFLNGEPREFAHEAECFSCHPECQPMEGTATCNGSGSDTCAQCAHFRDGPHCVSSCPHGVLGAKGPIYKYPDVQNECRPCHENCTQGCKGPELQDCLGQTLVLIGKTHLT
Protocol: as §2

maximum MFI, fold over isotype control background [1]: > 20 fold
EC50 (read off the curve) [2]: ~200 pM
maximum MFI, fold over isotype control background [3]: > 20 fold
EC50 (read off the curve) [4]: ~100 pM
B1: 09D12 IgG1null (antibody, V domains shown)
VH: QVQLVESGGGLVKPGGSLRLSCAASGFTFSDYGMSWIRQAPGKGLEWVSTISDGGSYTYYADSVKGRFTISRDNAKNSLYLQMNSLRAEDTAVYYCAREYGDYDGFDYWGQGTLVTVSS
VL: DIQMTQSPSSLSASVGDRVTITCRASQSISSYLNWYQQKPGKAPKLLIYAASSLDSGVPSRFSGSGSGTDFTLTISSLQPEDFATYYCLQYDSTPLTFGGGTKVEIK
notes: Human IgG1null and human Ckappa

maximum MFI, fold over isotype control background [1]: > 20 fold
EC50 (read off the curve) [2]: ~300 pM
maximum MFI, fold over isotype control background [3]: > 20 fold
EC50 (read off the curve) [4]: ~200 pM
B2: TTP IgG1null (antibody, V domains shown)
VH: B1 VH with G54S, Y57T, T58I
VL: B1 VL with D55Q
notes: Designer clone; Human IgG1null and human Ckappa; also called Total Theoretically Possible clone

From patent US20200339702A1 (ULTRAHUMAN THIRTEEN, published 2020)
